# Reference: patent publication US20200017592A1 (Regeneron, published 2020)
# Residue numbers refer to the chain shown, from its start.
# T1: full-length human IL-36R on cells (human, UniProt Q9HB29 20-575)
# T1 sequence (looked up): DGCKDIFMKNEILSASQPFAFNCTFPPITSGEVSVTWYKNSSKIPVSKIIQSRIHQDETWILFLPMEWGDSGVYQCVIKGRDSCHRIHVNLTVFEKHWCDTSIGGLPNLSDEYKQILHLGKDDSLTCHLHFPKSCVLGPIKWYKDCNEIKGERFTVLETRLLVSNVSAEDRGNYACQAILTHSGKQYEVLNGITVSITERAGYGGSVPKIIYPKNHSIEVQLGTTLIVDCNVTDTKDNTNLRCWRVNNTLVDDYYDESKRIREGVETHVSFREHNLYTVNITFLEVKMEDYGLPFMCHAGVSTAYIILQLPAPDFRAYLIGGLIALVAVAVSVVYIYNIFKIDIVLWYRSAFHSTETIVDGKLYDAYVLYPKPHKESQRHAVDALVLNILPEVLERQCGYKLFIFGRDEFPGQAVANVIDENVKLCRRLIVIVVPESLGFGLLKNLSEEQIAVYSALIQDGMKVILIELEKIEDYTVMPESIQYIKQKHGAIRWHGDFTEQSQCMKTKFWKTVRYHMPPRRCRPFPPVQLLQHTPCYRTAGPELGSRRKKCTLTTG
# T2: Macaca fascicularis IL-36R on cells (Macaca fascicularis, UniProt A0A2K5WSK9 20-558)
# T2 sequence: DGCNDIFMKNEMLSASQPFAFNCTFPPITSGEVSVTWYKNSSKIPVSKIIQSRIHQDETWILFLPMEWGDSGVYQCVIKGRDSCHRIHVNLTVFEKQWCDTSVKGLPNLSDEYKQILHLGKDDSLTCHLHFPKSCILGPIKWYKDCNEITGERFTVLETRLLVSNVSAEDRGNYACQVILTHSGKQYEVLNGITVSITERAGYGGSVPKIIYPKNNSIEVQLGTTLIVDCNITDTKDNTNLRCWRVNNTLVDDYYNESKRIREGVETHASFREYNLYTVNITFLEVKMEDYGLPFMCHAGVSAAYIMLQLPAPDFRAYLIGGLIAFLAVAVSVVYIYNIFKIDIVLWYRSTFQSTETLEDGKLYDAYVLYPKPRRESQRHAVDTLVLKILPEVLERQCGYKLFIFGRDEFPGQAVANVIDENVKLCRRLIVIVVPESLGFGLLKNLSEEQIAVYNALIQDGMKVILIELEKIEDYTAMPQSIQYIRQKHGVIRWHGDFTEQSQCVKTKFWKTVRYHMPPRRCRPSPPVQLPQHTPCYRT
# B1: H4H14699P2 (antibody, human IgG4 S228P, kappa, V domains shown)
# VH: EVQLVESGGGLVQPGRSLRLSCAASGFTFDDYAIHWVRQAPGKGLEWVSVISWNSDIIGYADSVKGRFTVSRDNAKNSLYLQMNSLRTEDTALYYCAKGYNWNFFDYWGQGTLVTVSS
# VL: EIVLTQSPATLSLSPGERATLSCRASQSVSSYLAWYQQKPGQAPRLLIYNAANRATDIPARFSGSGSGTDFTLTISSLEPEDFAVYYCQQRSNWPLTFGGGTKVEIKR
# notes: Fully human anti-IL-36R antibody
# B2: H4H14700P2 (antibody, human IgG4 S228P, kappa, V domains shown)
# VH: B1 VH with I34M, A40T, I57V, G59A, A61S, V70I, R87G, Y100H
# VL: B1 VL with A51V, S77G, Y87F
# B3: H4H14758P (antibody, human IgG4 S228P, kappa, V domains shown)
# VH: EVQLVESGGGLVQPGRSLRLSCAASGFTFDDYAMHWVRQAPGKGLEWVSSVRWNGGIIGYADSVKGRFTISRDNAKNSLYLQMNSLRPEDTALYYCAKDIGDVLTGYYGEYGMDVWGQGTTVTVSS
# VL: DIQMTQSPSSLSASVGDRVTIACRASQSITTYLNWYQQKPGKAPKLLIYAASSLQSGVPSRFSGSGSGTDFTLTISSLQPEDFATYYCQQSYISPYTFGQGTKLEIKR
# B4: H4H14728P (antibody, human IgG4 S228P, kappa, V domains shown)
# VH: QVQLQESGPGLVKPSQTLSLTCTVSGGSISSADYYWSWIRQHPGKGLEWIGSIYYTGSTYYNPSLKSRLTISIDTSENQFSLKLTSLTAADTAVYYCASEEANWGSHFDSWGQGTLVTVSS
# VL: DIQMTQSPSSLSASVGDRVTITCRASQSIDNFLNWYQQKPGKAPKLLIYAASSLQSGVPSRFSGSGSGTDFTLTISSLQPEDFASYYCQHSHSAHPITFGQGTRLEIKR
# B5: H4H14731P (antibody, human IgG4 S228P, kappa, V domains shown)
# VH: QLQLQESGPGLVKPSETLSLTCTVSGGSISSSNYYWGWIRQPPGKRLEWIGSIYYSGSTYYNPSLKTRVTISVDTSKNQFSLKLTSVTAADTAVYYCAREEAAALTHFDFWGQGTLVTVSS
# VL: B4 VL with D30S, F32Y, Y49F, S85T, A94S
# B6: H4H14709P (antibody, human IgG4 S228P, kappa, V domains shown)
# VH: EVQLVESGGGLVQPGGSLRLSCAASGFTFSDYAMSWVRQAPGKGLEWVSGISGNGGDTYYGDFVKGRFTISRDNSKNTLYLQMNSLRGEDTAAYFCVIDLDYWGQGTLVTVSS
# VL: DIQMTQSPSTLSASEGDRVTITCRASQSISSWLAWYQQKPGKAPRLLIYKASILGDGVPSRFSGSGSGTEFTLTISSLQPDDFATYYCHQYNSYLWTFGQGTKVEIKR
# B7: H4H14734P2 (antibody, human IgG4 S228P, kappa, V domains shown)
# VH: EVQLVESGGGLVKPGGSLRLSCAASGFIFSNAWMNWVRQAPGKGLAWVGRIKTETDGGTTDYAAPVKGRFTISRDDSKNTLYLQMNSVKTEDTAVYYCTGGYSYGDDSSSWNEGYYYYGMDVWGQGTTVTVSS
# VL: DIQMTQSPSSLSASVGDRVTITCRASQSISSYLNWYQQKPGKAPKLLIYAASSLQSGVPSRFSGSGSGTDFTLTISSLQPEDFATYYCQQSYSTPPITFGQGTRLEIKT
# Target: T1, full-length human IL-36R on cells
# Test: cell-based or functional assay
"IC50 [M], NFκB-luciferase, 10 pM hIL-36γ","IC50 [M], NFκB-luciferase, 15 pM hIL-36β","IC50 [M], NFκB-luciferase, 20 pM hIL-36α","Max Inhibition (%), NFκB-luciferase, 10 pM hIL-36γ","Max Inhibition (%), NFκB-luciferase, 15 pM hIL-36β","Max Inhibition (%), NFκB-luciferase, 20 pM hIL-36α",Binder
1.4e-10 M,1.3e-10 M,1.3e-10 M,99%,100%,100%,B1
1.2e-10 M,2e-10 M,1.9e-10 M,100%,100%,101%,B2
1.6e-10 M,,1.2e-10 M,57%,,100%,B3
1.2e-09 M,1.3e-09 M,9.7e-10 M,99%,99%,97%,B4
7.3e-10 M,9.4e-10 M,7.8e-10 M,99%,99%,99%,B5
1.3e-10 M,,1.4e-10 M,24%,,22%,B6

# Target: T3, recombinant human IL-36R extracellular domain expressed with a C-terminal myc-myc-hexahistidine tag (human, UniProt Q9HB29 20-337)
# T3 construct: also called hIL-36R-MMH; hIL-36R.mmH
# Test: SPR (Biacore 4000), mAb captured on anti-human Fc, 37°C
# Method: (§1) Equilibrium dissociation constants (KD values) for IL-36R binding to purified anti-IL-36R antibodies were determined using a real-time surface plasmon resonance biosensor using a Biacore 4000 instrument. The Biacore sensor surface was first derivatized by amine coupling with a monoclonal mouse anti-human Fc antibody (GE, # BR-1008-39) to capture anti-IL-36R monoclonal antibodies. All binding studies were performed in 0.01 M Hepes pH 7.4, 0.15 M NaCl, 3 mM EDTA, and 0.05% v/v Surfactant Tween-20 (HBS-ET running buffer) at 25° C. and 37° C. Different concentrations of IL-36R reagents, human IL-36R extracellular domain expressed with a C-terminal myc-myc-hexahistidine tag (hIL-36R-MMH), Macaca fascicularis IL-36R extracellular domain expressed with a C-terminal myc-myc-hexahistidine tag (mfIL-36R-MMH: mROR1 signal sequence (M1-A29). Macaca fascicularis IL36R_ecto domain (D20-A336).mycmycHis6), human IL-36R extracellular domain expressed with a C-terminal mouse IgG2a Fc tag (hIL-36R-mFc: mROR1 signal sequence (M1-A29)-human IL36R (D20-Y337)-mouse IgG2aFc (E98-K330)) or an in-line fusion protein of human IL-36R extracellular domain and IL1RAcP extracellular domain expressed with mouse IgG2a Fc tag (hIL-36R-Trap-mFc: mROR1 signal sequence (M1-A29)-human IL36R ecto domain (D20-Y337)-human IL1RacP ecto domain(S21-E359)-mouse IgG2aFc) in HBS-ET running buffer (ranging from 100 nM to 3.7 nM, 3-fold dilutions) were injected over the anti-IL-36R antibody captured surface for 4 minutes at a flow rate of 30 μL/minute and their dissociation in HBS-ET running buffer was monitored for 10 minutes. Kinetic association rate constant (kₐ) and dissociation rate constant (kd) were determined by fitting the real-time sensorgrams to a 1:1 binding model using Scrubber 2.0c curve fitting software. Binding dissociation equilibrium constants (KD) and dissociative half-lives (t_{1/2}) were calculated from the kinetic rate constants as: […]
100 nM hIL-36R-MMH Bound (RU),Kd,koff,kon,t½,Binder
89 RU,29.5 nM,0.00418 s⁻¹,142000 M⁻¹ s⁻¹,2.8 min,B1
89 RU,10.5 nM,0.00184 s⁻¹,176000 M⁻¹ s⁻¹,6 min,B2
111 RU,15 nM,0.00237 s⁻¹,158000 M⁻¹ s⁻¹,5 min,B3
25 RU,13.9 nM,0.000749 s⁻¹,53900 M⁻¹ s⁻¹,15 min,B7
93 RU,21.5 nM,0.00293 s⁻¹,136000 M⁻¹ s⁻¹,4 min,B4
81 RU,7.11 nM,0.000971 s⁻¹,137000 M⁻¹ s⁻¹,12 min,B5
106 RU,4.25 nM,0.000554 s⁻¹,131000 M⁻¹ s⁻¹,21 min,B6

# Target: T3, recombinant human IL-36R extracellular …
# Test: SPR (Biacore 4000), mAb captured on anti-human Fc, 25°C
# Method: as §1
100 nM hIL-36R-MMH Bound (RU),Kd,koff,kon,t½,Binder
74 RU,10.2 nM,0.00168 s⁻¹,165000 M⁻¹ s⁻¹,7 min,B1
67 RU,4.82 nM,0.000579 s⁻¹,120000 M⁻¹ s⁻¹,20 min,B2
87 RU,7.63 nM,0.000923 s⁻¹,121000 M⁻¹ s⁻¹,13 min,B3
22 RU,12.2 nM,0.000404 s⁻¹,33200 M⁻¹ s⁻¹,29 min,B7
69 RU,7.87 nM,0.000773 s⁻¹,98300 M⁻¹ s⁻¹,15 min,B4
54 RU,3.72 nM,0.000343 s⁻¹,92200 M⁻¹ s⁻¹,34 min,B5
64 RU,4.09 nM,0.000296 s⁻¹,72300 M⁻¹ s⁻¹,39 min,B6

# Target: T2, Macaca fascicularis IL-36R on cells
# Test: cell-based or functional assay
"IC50 [M], NFκB-luciferase, 300 pM hIL-36γ","IC50 [M], NFκB-luciferase, 500 pM hIL-36α","IC50 [M], NFκB-luciferase, 600 pM hIL-36β","Max Inhibition (%), NFκB-luciferase, 300 pM hIL-36γ","Max Inhibition (%), NFκB-luciferase, 500 pM hIL-36α","Max Inhibition (%), NFκB-luciferase, 600 pM hIL-36β",Binder
2e-10 M,8.4e-11 M,1.9e-10 M,97%,97%,98%,B1
1.8e-10 M,1.2e-10 M,1.8e-10 M,99%,99%,99%,B2
2e-09 M,1.3e-09 M,1.5e-09 M,93%,93%,95%,B4
5.4e-09 M,3.1e-09 M,7.1e-09 M,75%,84%,78%,B5
